In patent publication US20170290877A1:
Non-standard residues stand in square brackets, D forms with d. No end group written: not given here.

Biological target: JNK in primary mouse cortical neurons
Assay: cell-based or functional assay

Binder: [dD][dQ][dS][dR][dP][dV][dQ][dP][dF][dL][dN][dL][dT][dT][dP][dR][dK][dP][dR][dP][dP][dR][dR][dR][dQ][dR][dR][dK][dK][dR]G [D-TAT-IB1(s)]
- JNK activation in Aβ42-stressed PKR-/- neurons (immunoblot), XG-102 at 10 µM: -35%
- JNK activity as ratio pJNK/JNK after 1 mM H2O2 (immunoblot), XG-102 at 10 µM (% of controls): 45
- c-Jun phosphorylation in Aβ42-stressed WT neurons (immunoblot), XG-102 at 10 µM: -74%
